Assay results published in patent US12441811B2, “Compositions and methods for treating serpin B13 disorders” (REGENTS OF THE UNIVERSITY OF MINNESOTA, priority 2019, dated 2025).
Entries after “also recorded” stand apart in the source; their conditions may differ.

Columns and labels:
[1] = system: catL; assay: catL activity in vivo with activity-based probe ProSense 680; set-up: species or system mouse
Description: CatL has been implicated as a serpinB13 protease target. To examine the consequences of inhibiting serpinB13 using a mAb (clone B29), the catalytic activity of catL was measured. […] To measure catL activity in vivo, the activity-based probe, ProSense 680, was used. […] This increase was limited to the pancreas in wild-type Balb/c mice and was not observed in the liver, where serpinB13 is not expressed, or in the pancreas of catL-deficient Balb/c mice.

[2] = system: Ngn3+ endocrine progenitor cells; assay: Ngn3+ cells in embryonic pancreas after antibody injection into pregnant mice; format: in vivo, mouse; conditions: for number of Ngn3+ cells in the embryonic pancreas: pregnant mice i.p. 50 μg daily E10.5 through E13.5, E16.5 and birth, vs control Ab
Description: The control mouse mAb (clone TIB92) was from ATCC (Manassas, VA, USA). The recombinant human control Ab (cat. No 403502) was from BioLegend (San Diego, CA). In most of the experiments, anti-serpinB13 mAb (clone B29) or control mouse mAb was injected i.p. into pregnant female mice at 50 μg for four consecutive days, starting at gestational day E10.5 (total dose of 200 μg). In the lineage tracing experiments in adult mice, B29 was injected i.p. for 7 days at 100 μg/injection during the first week after STZ treatment (total dose of 700 μg).
(§1) Processing of pancreatic tissue for immunofluorescence microscopy. The pancreatic tissues were isolated and fixed either overnight (adult pancreases), or for one hour (embryonic pancreas explants), in 2% PFA (pH 7.4), followed by a two-step saturation process: first in a 30% sucrose solution in PBS and then in optimal cutting temperature (OCT) compound. After complete saturation, the tissues were imbedded in OCT using Cryomold and then snap frozen in an ethanol/dry ice bath. The OCT blocks were serially cut through the entire organ to obtain representative sections every 600 μm (6 to 8 sections per adult pancreas), 50 μm (12 to 14 sections per E16.5 embryonic pancreas), 35 μm (10 to 12 sections per E14.5 embryonic pancreas), or 15 μm (10 to 12 sections per E12.5 embryonic pancreas cultured for 1 to 3 days). For the embryonic linage tracing experiments, three largest sections were taken for the analysis. For all other experiments involving immunofluorescence microscopy, all obtained sections were analyzed.
(§2) The sections from the pancreases of embryos at age E14.5 and E16.5, and newborn pups (OP), were stained with anti-Ngn3 antibody to determine the total number of endocrine progenitors cells for all sections per explant combined (FIG. 9G, FIG. 17A). Alternatively, the sections representing the pancreases of embryos at age E12.5 (which are considerably smaller) were stained with both anti-Ngn3 and anti-CK19 antibodies to determine the fraction of CK19-positive area that was occupied by Ngn3− positive staining (FIGS. 9D, 10A, 10C, 12D, 12G, 12J and FIGS. 15A, 20B). The following formula was used to adjust for any differences in the pancreas size: (Ngn3^+ cell number/μm^2 of CK19^+ cells)×10^5.
Image analysis. […] To classify and quantify the images in unbiased fashion, we defined the following four classes for the analysis: Ngn3^+ cells, the clusters of cytokeratin 19^+ cells, the negatively stained areas, and background (e.g., the area outside of tissue sample). […] For the unbiased quantitative analysis of β-cells and islets in the whole pancreatic sections, Visiopharm Author module was trained to recognize insulin-positive β-cell clusters with diameter greater than 50 μm as well as negatively stained section area. […]

[3] = system: Ngn3+ endocrine progenitor cells; assay: Ngn3+ cells in embryonic pancreas explants (E12.5) cultured in vitro; format: cell-based, mouse; conditions: for number of CK19+ epithelial cells: E12.5 explants with mAb vs control Ab
Description: Isolation and culture of embryonic pancreas explants. The isolation and culture of embryonic pancreas explants was performed as described elsewhere, with minor modifications.
as §1, with “analyzed. […]” for “analyzed.”
as §2
Image analysis. Embryonic images were processed with a plugin-Trainable Weka Segmentation v3.2.28 (Hamilton, New Zealand) for ImageJ v.1.52jv software. To classify and quantify the images in unbiased fashion, we defined the following four classes for the analysis: Ngn3^+ cells, the clusters of cytokeratin 19^+ cells, the negatively stained areas, and background (e.g., the area outside of tissue sample). Alternatively, the Visiopharm version 6.0 software (Visiopharm, Hoerholm, Denmark) with Author module was used to create applications to outline Ngn3^+ cells or double positive cells expressing YFP and insulin using preprocessing and postprocessing steps, when necessary. In addition, the Engine module of the Visiophram module was used to execute created applications and unbiasedly analyze the images. For the unbiased quantitative analysis of β-cells and islets in the whole pancreatic sections, Visiopharm Author module was trained to recognize insulin-positive β-cell clusters with diameter greater than 50 μm as well as negatively stained section area. In all studies involving microscopy the treatment assignments were blinded to investigators who performed data analysis.

[4] = system: catL; assay: catL protease activity in cell extract from pancreatic tissue in vitro; format: biochemical; conditions: mAb added to cell extract from pancreatic tissue in vitro

B1: B29: mouse monoclonal antibody to serpin B13, clone B29; heavy chain SEQ ID NO:14, kappa light chain SEQ ID NO:16 (antibody, V domains shown)
VH: QIQLVQSGPELKKPGETVKISCKASGYTFTTYGMSWVKQAPGKGLKWMGWINTYSGMPTYADDFKGRFAFSLETSATTAYLQINNLKNEDTATYFCARPLLGLDYWGQGTTLTVSS
VL: DIVMTQTPLSLSVTIGQPASISCKSSQSLLHSDGKTFLNWFLQRPGQSPKLLIYLVSKLESGIPDRFSGSGSGTDFTLKISRVEVEDLGVYYCLQHTHFPLTFGAGTKLEIK
- increase in catL activity in the pancreas of catL-deficient mice ([1]; catL-deficient Balb/c mice): not observed
- increase in catL activity in the liver ([1]; liver, where serpinB13 is not expressed): not observed
- catL activity ([1]; summary statement, setting not specified): augmented
- catL activity in the intact pancreas ([1]; wild-type Balb/c mice, after injection of mAb, ProSense 680): significant increase
- fractions of pancreatic microscopic sections positively stained with anti-insulin antibody ([2]; E16.5 embryos exposed in vivo vs control Ab): significantly higher fractions
- Ngn3 protein levels ([2]; Western blot, E16.5, pregnant mice i.p. 50 μg daily E10.5-E13.5): robust increase
- number of Ngn3+ cells in the embryonic pancreas [2]: increased; also recorded: significant increase; also recorded: robust increase
- number of Ngn3+ cells in the embryonic pancreas ([2]; listed as mAb): robust increase
- Ngn3+ cell population, upregulation by mAb ([3]; CatL-deficient embryonic pancreas explants, 48-hour culture): completely refractory to upregulation
- number of CK19+ epithelial cells [3]: remained unchanged
- number of CK19+ epithelial cells ([3]; listed as mAb): did not change
- number of Ngn3+ cells ([3]; E12.5 explants, antibody at 1 μg/mL vs control Ab): significant increase
- protease activity of catL [4]: dose-dependently enhanced
